Drawing on PMC6754583, this text covers mean dwell time between stem transitions (fits to individual datasets), mean dwell time between stem transitions (global fit) and midpoint force F1/2 of stem opening for one substance.

The assay concerns the target full-length von Willebrand factor (VWF) dimer, hetero-bifunctional construct (UniProt P04275). The assay is described as follows: magnetic tweezers single-molecule force spectroscopy.

Turning to “full-length von Willebrand factor (VWF) dimer, hetero-bifunctional construct (from UniProt P04275 764-2813; P04275 764-2813) (natural protein)”, the mean dwell time between stem transitions (fits to individual datasets) stood at 0.28 s, the mean dwell time between stem transitions (global fit) was found to be 0.28 s and the midpoint force F1/2 of stem opening was 1 pN.
